# In the supplement of paper PMC9732359:
# ± gives the uncertainty stated by the source.
# Experiment: protein stability index of a GFP-peptide fusion (yeast GPS) (PSI 1-4); higher = more stable; sorted into four equal gates, so the index is relative within each strain
# Outline: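 Tiled yeast protein peptides of 17 residues were each joined downstream of GFP, on plasmids that also express Cherry. The pooled library was maintained in yeast, and mid-log cultures in leucine-free medium were sorted into four equal gates on the GFP/Cherry ratio. Plasmids from every gate were amplified by PCR and sequenced on Illumina, with barcodes linking reads to strains. The protein stability index of a peptide is its gate-number-weighted read frequency summed over the gates.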
Sequence,protein stability index (doa10∆),protein stability index (pdr5∆),protein stability index (san1∆),protein stability index (ubr1∆)
GTPEATKGMITNLQRNV [NUT2],2.95 ± 0.15,2.85 ± 0.12,2.94 ± 0.15,3.09 ± 0.19
DTFRAGAFDQLKQNAIR [SRP54],2.82 ± 0.058,2.99 ± 0.056,3.09 ± 0.053,3.09 ± 0.076
STIITKAINQELEDVAV [YCS4],2.96 ± 0.23,3.22 ± 0.11,2.72 ± 0.057,3.04 ± 0.061
QAQAQAQAQAQAQAQAQ [GAL11],2.84 ± 0.032,3.1 ± 0.034,3.101 ± 0.024,3.04 ± 0.033
KRFKRKDNAKISNNLAL [SRP68],2.31 ± 0.054,2.59 ± 0.067,2.26 ± 0.079,1.95 ± 0.045
SGVKNDILQSLSGGGHD [CDC53],3.09 ± 0.075,3.09 ± 0.077,2.71 ± 0.068,2.8 ± 0.048
ELNDNPAWFNNPRKRAI [YMR153W/NUP53],3.09 ± 0.089,2.96 ± 0.066,2.48 ± 0.037,2.98 ± 0.051
QDKEGIPPDQQRLIFAG [RPS31],2.95 ± 0.068,2.8 ± 0.057,3.19 ± 0.035,3.15 ± 0.033
VFYRGMTMQVAVPRDEL [FAS1],1.62 ± 0.056,1.86 ± 0.066,2 ± 0.072,1.97 ± 0.12
QAPFSTSTKDKNSSTSN [MED1],3.11 ± 0.062,3.24 ± 0.068,3.12 ± 0.054,3.09 ± 0.048
RARVTKDLVEIKKEEGK [RPN5],–,3.42 ± 0.18,3.33 ± 0.17,3.59 ± 0.077
KVKNQGADVTNTTQDNG [YCS4],3.17 ± 0.086,3.19 ± 0.084,3.11 ± 0.049,3.2 ± 0.057
FKKDLVIVLSNISHLLE [SWI1],1.86 ± 0.048,1.63 ± 0.067,1.75 ± 0.078,1.93 ± 0.061
MACNFQFPEIAYPGKLI [CSL4],2.88 ± 0.12,2.9 ± 0.12,2.76 ± 0.12,2.62 ± 0.16
VQYLRSVQDLGGSATAR [YML031W/NDC1],2.14 ± 0.13,1.5 ± 0.069,1.53 ± 0.22,1.57 ± 0.064
RNQILVSITDAPKIHIL [YMR129W/POM152],1.43 ± 0.041,1.35 ± 0.036,1.26 ± 0.057,1.61 ± 0.038
ICYDVNDWQMLEMLKPC [RPB2],2.62 ± 0.063,2.67 ± 0.086,2.46 ± 0.073,2.61 ± 0.062
LLLDNGFNMKKITTSTE [SRP68],2.19 ± 0.18,2.22 ± 0.091,3.05 ± 0.17,2.88 ± 0.1
AEDDVIIPQDILDCVVT [YJR042W/NUP85],3.18 ± 0.1,3.04 ± 0.065,3.36 ± 0.04,2.94 ± 0.07
ERGFACIPLVGISVPFH [FAS1],1.34 ± 0.06,1.32 ± 0.07,1.22 ± 0.12,1.21 ± 0.061
NPMKKHKPNEGRTPNIS [SIR4],2.88 ± 0.068,2.86 ± 0.055,2.88 ± 0.052,2.97 ± 0.036
VAAAGITASTLLYADSL [CYT1],1.89 ± 0.068,2.12 ± 0.078,1.75 ± 0.14,1.93 ± 0.078
QQQQQHQQQQQQQQQQQ [SNF5],2.73 ± 0.04,2.89 ± 0.05,2.94 ± 0.043,2.97 ± 0.044
VMKQVETLVLDEADKMI [PRP28],–,–,3.42 ± 0.13,3.04 ± 0.12
LVSANNDNNSPHTPVTR [YLR018C/POM34],2.63 ± 0.12,2.85 ± 0.072,2.92 ± 0.08,2.95 ± 0.12

Sequence,protein stability index (doa10∆),protein stability index (pdr5∆),protein stability index (san1∆),protein stability index (ubr1∆)
GKGNTFEKVGSHLYKAR [RPN14],2.93 ± 0.25,2.81 ± 0.14,–,3.27 ± 0.13
RAASAKIESSVESQFSA [RPS8A],3.11 ± 0.09,3.31 ± 0.083,2.53 ± 0.13,3.45 ± 0.14
TVSPTQDKDAIRKQPDD [SIR2],2.99 ± 0.076,3.11 ± 0.087,2.99 ± 0.067,2.9 ± 0.096
SLQSSSQTQLENANAAN [MED2],1.96 ± 0.075,2.6 ± 0.056,2.64 ± 0.091,1.33 ± 0.035
IESDSILNLLNILTTHL [ECM29],2.39 ± 0.043,2.02 ± 0.046,1.75 ± 0.049,2.32 ± 0.049
NLSAFKIVYIAPLKALV [BRR2],1.55 ± 0.054,1.54 ± 0.051,1.49 ± 0.12,1.56 ± 0.062
VSTKMHRTIVIRRAYLH [RPS11A],1.37 ± 0.047,1.14 ± 0.054,1.54 ± 0.087,1.12 ± 0.033
SRFSPEKLAVSALEQAI [YGL100W/SEH1],2.19 ± 0.098,2.36 ± 0.12,1.9 ± 0.077,2.42 ± 0.13
PKGVILYGAPGTGKTLL [RPT2],3.67 ± 0.27,–,–,3.13 ± 0.22
ALEDEERDEILTLTDSQ [BRR2],3.09 ± 0.13,3.25 ± 0.14,3.23 ± 0.088,3.12 ± 0.16
VSALQMLKQHLFKYQGH [PUP1],2.55 ± 0.073,2.71 ± 0.076,2.65 ± 0.059,2.57 ± 0.05
KPANASHAIRLGNGVAC [RGR1],2.71 ± 0.06,3.06 ± 0.052,2.52 ± 0.058,3.01 ± 0.051
AKIISKAPEQFIENFLT [YML103C/NUP188],2.69 ± 0.17,2.94 ± 0.26,2.54 ± 0.2,2.89 ± 0.2
KNAGLGFKTPKTAIEGS [RPS11A],3.01 ± 0.047,3.12 ± 0.055,3.11 ± 0.035,3.13 ± 0.041
TTIDSLNAELESKLIPQ [SMC3],3.06 ± 0.12,3.03 ± 0.085,2.46 ± 0.14,3.1 ± 0.066
SSFKEDCLSFAPTLSQT [SSN2],2.7 ± 0.084,2.67 ± 0.1,3.03 ± 0.086,2.91 ± 0.052
RTKSQVIEEDYDDEQNT [IRR1],2.4 ± 0.071,2.83 ± 0.15,2.38 ± 0.099,1.83 ± 0.16
YLERTLDTFIKIDGNPD [PRE5],2.73 ± 0.098,3.2 ± 0.092,3.04 ± 0.055,3.3 ± 0.078
TAIDKNGNITYSEEPRE [FAS2],2.87 ± 0.069,3.29 ± 0.066,3.12 ± 0.076,3.15 ± 0.073
NGNTSSKTVVTLSEPVQ [FAS1],2.91 ± 0.072,3.14 ± 0.066,2.96 ± 0.059,2.96 ± 0.055
LVQLEPHLFVNGDLTVS [SSN2],1.77 ± 0.1,1.9 ± 0.069,1.53 ± 0.16,1.5 ± 0.16
YGRDDMENIKKSIDSKT [ISW2],2.87 ± 0.11,2.94 ± 0.1,3.21 ± 0.062,3.03 ± 0.082
FFLGYMINRLLLCALDR [RPB2],1.51 ± 0.17,–,–,1.68 ± 0.12
RLQAANSMEYTGKITKM [CDC53],2.99 ± 0.12,2.62 ± 0.14,2.52 ± 0.094,2.73 ± 0.064
